{
  "source": "patent US20230348558A1",
  "about": "(published 2023)",
  "key": {"[1]": {"target": "T1, HPV16-E5 peptide on HLA-C*05:01 (human)", "T1 peptide": "NLDTASTTL", "assay": "cytokine release"}, "[2]": {"target": "T2, HPV16-E5 peptide on HLA-C*08:02 (human)", "T2 peptide": "NLDTASTTL", "assay": "cytokine release"}, "[3]": {"target": "T3, HPV16-E2 peptide on HLA-A*02:01 (human)", "T3 peptide": "TLQDVSLEVYL", "assay": "killing"}},
  "data": [
    {"binder": "E5-NLD-TCR (TCR, V domains shown) Valpha: AQKVTQAQTEISVVEKEDVTLDCVYETRDTTYYLFWYKQPPSGELVFLIRRNSFDEQNEISGRYSWNFQKSTSSFNFTITASQVVDSAVYFCALSEGGGSQGNLIFGKGTKLSVKP Vbeta: GVSQSPRYKVTKRGQDVALRCDPISGHVSLYWYRQALGQGPEFLTYFNYEAQQDKSGLPNDRFSAERPEGSISTLTIQRTEQRDSAMYRCASSPELAGPQETQYFGPGTRLLVL", "values": [
      {"measurement": "binding result", "setting": "[1]", "value": "recognises"},
      {"measurement": "binding result", "setting": "[2]", "value": "recognises"}
    ]},
    {"binder": "E2-TLQ-TCR (TCR, V domains shown) Valpha: AQTVTQSQPEMSVQEAETVTLSCTYDTSESNYYLFWYKQPPSRQMILVIRQEAYKQQNATENRFSVNFQKAAKSFSLKISDSQLGDTAMYFCAFTYGGSQGNLIFGKGTKLSVKP Vbeta: EPEVTQTPSHQVTQMGQEVILRCVPISNHLYFYWYRQILGQKVEFLVSFYNNEISEKSEIFDDQFSVERPDGSNFTLKIRSTKLEDSAMYFCASRASVGVGTGELFFGEGSRLTVL", "values": [
      {"measurement": "binding result", "setting": "[3]", "value": "recognises"}
    ]}
  ]
}
